Measurements published in paper PMC13280575, “The PER2:BRCA1:POU2F1(OCT-1) ternary complex represents a multi-component scaffold model for circadian gene regulation”.

Biological target: POU2F1 (OCT-1) POU DNA-binding domain, wild type (Homo sapiens, UniProt P14859 280-438)
Assay: EMSA; dose-dependent, saturation at ~0.8 uM protein; EMSA: 20 mM HEPES pH 7.9, 2 mM MgCl2, 10% glycerol, 2 mM DTT, 36 ng poly(dI-dC), 20 min room temperature; 5% native gel, 0.5x TBE, 4 C
Settings: protein: recombinant; tags: GST fusion, thrombin-cleaved when indicated (state in EMSA not explicit); label: 5'-32P; blunt

Chain of POU2F1 (OCT-1) POU DNA-binding domain, wild type (P14859 280-438): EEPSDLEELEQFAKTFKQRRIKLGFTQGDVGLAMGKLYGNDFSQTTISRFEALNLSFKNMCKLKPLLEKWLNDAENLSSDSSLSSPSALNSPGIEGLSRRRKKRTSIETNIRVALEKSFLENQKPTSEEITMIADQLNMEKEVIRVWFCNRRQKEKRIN

B1: ESR1 promoter POU2F1 element probe (-56 to -42) (dsDNA)
DNA 1: GCTATGGCCTATGCATATGAAGCCTTTATT
DNA 2: AATAAAGGCTTCATATGCATAGGCCATAGC
  binding result: binds
